Patent US20230086069A1

Target: human CD19 on cells (CD20+ B cells of human PBMC; Raji lymphoma cells) (human) (UniProt P15391)
Experiment: flow cytometry, dose response on human CD20+ lymphocytes

Chain of human CD19 on cells (CD20+ B cells of human PBMC; Raji lymphoma cells) (human) (P15391 20-556): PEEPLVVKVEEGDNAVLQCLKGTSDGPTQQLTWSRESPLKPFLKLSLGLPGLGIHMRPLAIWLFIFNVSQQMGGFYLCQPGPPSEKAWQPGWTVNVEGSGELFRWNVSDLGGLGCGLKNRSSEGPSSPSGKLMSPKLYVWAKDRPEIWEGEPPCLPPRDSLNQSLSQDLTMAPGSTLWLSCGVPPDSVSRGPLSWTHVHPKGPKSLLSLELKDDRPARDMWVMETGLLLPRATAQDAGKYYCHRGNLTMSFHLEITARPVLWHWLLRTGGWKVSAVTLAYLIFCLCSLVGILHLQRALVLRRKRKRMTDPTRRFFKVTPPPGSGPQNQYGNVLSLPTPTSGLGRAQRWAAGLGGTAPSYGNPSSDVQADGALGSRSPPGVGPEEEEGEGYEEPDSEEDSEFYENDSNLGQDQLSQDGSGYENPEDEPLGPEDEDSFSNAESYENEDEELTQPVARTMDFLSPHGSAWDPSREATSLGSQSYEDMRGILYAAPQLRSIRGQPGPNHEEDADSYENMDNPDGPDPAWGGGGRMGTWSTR

Row | EC50 [µg/mL] | Substance
1 | 0.209 | SJ25C (mouse anti-human CD19 antibody)
2 | 0.0544 | HIB19 (mouse anti-human CD19 antibody)
3 | 0.549 | 4G7 (mouse anti-human CD19 antibody)
